According to paper doi:10.1101/2023.11.20.565808 (bioRxiv, 2023):

Target: GST-fused RACK1, WT (human, UniProt P63244 1-317)
Experiment: pull-down

B1: His6-YTHDF2, WT (FL) (natural protein)
chain: MSASSLLEQRPKGQGNKVQNGSVHQKDGLNDDDFEPYLSPQARPNNAYTAMSDSYLPSYYSPSIGFSYSLGEAAWSTGGDTAMPYLTSYGQLSNGEPHFLPDAMFGQPGALGSTPFLGQHGFNFFPSGIDFSAWGNNSSQGQSTQSSGYSSNYAYAPSSLGGAMIDGQSAFANETLNKAPGMNTIDQGMAALKLGSTEVASNVPKVVGSAVGSGSITSNIVASNSLPPATIAPPKPASWADIASKPAKQQPKLKTKNGIAGSSLPPPPIKHNMDIGTWDNKGPVAKAPSQALVQNIGQPTQGSPQPVGQQANNSPPVAQASVGQQTQPLPPPPPQPAQLSVQQQAAQPTRWVAPRNRGSGFGHNGVDGNGVGQSQAGSGSTPSEPHPVLEKLRSINNYNPKDFDWNLKHGRVFIIKSYSEDDIHRSIKYNIWCSTEHGNKRLDAAYRSMNGKGPVYLLFSVNGSGHFCGVAEMKSAVDYNTCAGVWSQDKWKGRFDVRWIFVKDVPNSQLRHIRLENNENKPVTNSRDTQEVPLEKAKQVLKIIASYKHTTSIFDDFSHYEKRQEEEESVKKERQGRGK
binding result: binds
